Results as given in patent publication US20240294623A1 (SCHOLAR ROCK, published 2024).
Where a chain is given by its changes, count along the chain named.

B1: Ab46 (hIgG4) (antibody, V domains shown)
VH: EVQLLESGGGLVQPGGSLRLSCAASGFTFADYAMTWVRQAPGKGLEWVSAISGSGAATYFADSVKGRFTISRDNSKNTLYLQMNSLRAEDTAVYYCARVSSGHWDYDYWGQGTLVTVSS
VL: DIQLTQSPSSLSASVGDRVTITCRASQSISSYLNWYQQKPGKAPKLLIYAASGLESGVPSRFSGSGSGTDFTLTISSLQPEDFATYYCQQTYGVPLTFGGGTKVEIK
B2: Ab3 (antibody, V domains shown)
VH: B1 VH with A30R, D31N, T35S, A50S, A56G, F60Y, Y106F
VL: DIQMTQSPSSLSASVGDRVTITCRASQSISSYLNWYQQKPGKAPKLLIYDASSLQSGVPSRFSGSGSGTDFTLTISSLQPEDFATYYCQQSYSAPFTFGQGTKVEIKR
B3: Ab21 (antibody, V domains shown)
VH: EVQLVESGGGLVQPGGSLRLSCAASGFTFSSFSMDWVRQAPGKGLEWVSYISPDASTIYYADSVKGRFTISRDNAKNSLYLQMNSLRAEDTAVYYCARGVLDYGDMLDPWGQGTLVTVSS
VL: DIQMTQSPSSLSASVGDRVTITCQASQDITNYLNWYQQKPGKAPKLLIYDASNLETGVPSRFSGSGSGTDFTFTISSLQPEDIATYYCQQADNHPPWTFGGGTKVEIK
B4: Ab5 (antibody, V domains shown)
VH: B3 VH
VL: B3 VL
B5: Ab30 (antibody, V domains shown)
VH: B3 VH with V100T
VL: B3 VL
B6: Ab27 (antibody, V domains shown)
VH: B3 VH with S31F, F32Y, S33A, D35N
VL: B3 VL
B7: Ab32 (antibody, V domains shown)
VH: B3 VH with D35N, D54S, S56D, S78T, L101W, Y103M
VL: B3 VL
B8: Ab4 (antibody, V domains shown)
VH: B3 VH with F32Y, D35N, P53S, D54S, A55S
VL: B3 VL
B9: Ab23 (antibody, V domains shown)
VH: B3 VH with D35N, D54S, S56D, S78T
VL: B3 VL
B10: Ab31 (antibody, V domains shown)
VH: B3 VH with S78T, G99A
VL: B3 VL
B11: Ab28 (antibody, V domains shown)
VH: B3 VH with A97V
VL: B3 VL
B12: Ab26 (antibody, V domains shown)
VH: B3 VH with S78T
VL: B3 VL
B13: Ab25 (antibody, V domains shown)
VH: B3 VH with S30G
VL: B3 VL
B14: Ab29 (antibody, V domains shown)
VH: B3 VH with G16R, S33A, D35N, D62G, A97V, G99A
VL: B3 VL
B15: Ab24 (antibody, V domains shown)
VH: B3 VH with G16R, S33A, D35Y
VL: B3 VL
B16: Ab22 (antibody, V domains shown)
VH: B3 VH with S30G, D35N, S52H, P53S
VL: B3 VL
B17: Ab33 (antibody, V domains shown)
VH: B3 VH with D35N, D54S, S56D, S78T, R98H
VL: B3 VL

Tests used:
[1] = target: endogenous LTBP-proTGFβ1 of human LN229 cells (human, UniProt P01137 30-390); assay: cell-based or functional assay
[2] = target: T1, hGARP-proTGFβ1 (human, UniProt Q14392 18-627; P01137 30-390, limits assumed); assay: BLI (Octet)
T1 construct: LLC as m1; Same id used for the cell-surface complex in reporter assays; also called human GARP-proTGFβ1 complex; GARP-ProTGFb1

[3] = target: T2, hLRRC33-proTGFβ1 (human, UniProt Q86YC3 19-650; P01137 30-390, limits assumed); assay: BLI (Octet)
T2 construct: LLC as m1; Same id used for the cell-surface complex in reporter assays; also called human LRRC33-proTGFβ1 complex; LRRC33-ProTGFb1

[4] = target: T3, hLTBP3-proTGFβ1 (human, UniProt Q9NS15 44-1303; P01137 30-390, limits assumed); assay: BLI (Octet)
T3 construct: LLC as m1; Same id used for the cell-made complex in reporter assays; also called human LTBP3-proTGFβ1 complex; LTBP3-ProTGFb1

[5] = target: T4, hLTBP1-proTGFβ1 (human, UniProt Q14766 347-1721; P01137 30-390, limits assumed); assay: BLI (Octet)
T4 construct: Large latent complex (LLC): proTGFβ1 dimer disulfide-linked to one presenting molecule; recombinant, purified, biotinylated in BLI/SPR; The same id is used for the complex made by transfected cells in the reporter assays; also called human LTBP1-proTGFβ1 complex; LTBP1-ProTGFb1

[6] = target: T1, hGARP-proTGFβ1; assay: cell-based or functional assay
[7] = target: T2, hLRRC33-proTGFβ1; assay: cell-based or functional assay
[8] = target: T3, hLTBP3-proTGFβ1; assay: cell-based or functional assay
[9] = target: T4, hLTBP1-proTGFβ1; assay: cell-based or functional assay
[10] = target: T1, hGARP-proTGFβ1; assay: MSD-SET, hIgG4
Protocol: (§1) For solution equilibrium titration-based binding assays, protein complexes that comprise one of the presenting molecules such as those shown above may be employed as antigen (presenting molecule-TGFβ1 complex, or an LLC). Test antibodies are allowed to form antigen-antibody complex in solution. Antigen-antibody reaction mixtures are incubated to allow an equilibrium to be reached; the amount of the antigen-antibody complex present in the assay reactions can be measured by suitable means well known in the art. As compared to BLI-based assays, SET-based assays are less affected by on/off rates of the antigen-antibody complex, allowing sensitive detection of very high affinity interactions.

[11] = target: T2, hLRRC33-proTGFβ1; assay: MSD-SET, hIgG4
Protocol: as §1

[12] = target: T3, hLTBP3-proTGFβ1; assay: MSD-SET, hIgG4
Protocol: as §1

[13] = target: T4, hLTBP1-proTGFβ1; assay: MSD-SET, hIgG4
Protocol: as §1

[14] = target: T1, hGARP-proTGFβ1; assay: cell-based or functional assay; remark: listed apart in the source
[15] = target: T2, hLRRC33-proTGFβ1; assay: cell-based or functional assay; remark: listed apart in the source
[16] = target: T3, hLTBP3-proTGFβ1; assay: cell-based or functional assay; remark: listed apart in the source
[17] = target: T4, hLTBP1-proTGFβ1; assay: cell-based or functional assay; remark: listed apart in the source

T2 sequence (Q86YC3 19-650 limits assumed, chain 1 of 2): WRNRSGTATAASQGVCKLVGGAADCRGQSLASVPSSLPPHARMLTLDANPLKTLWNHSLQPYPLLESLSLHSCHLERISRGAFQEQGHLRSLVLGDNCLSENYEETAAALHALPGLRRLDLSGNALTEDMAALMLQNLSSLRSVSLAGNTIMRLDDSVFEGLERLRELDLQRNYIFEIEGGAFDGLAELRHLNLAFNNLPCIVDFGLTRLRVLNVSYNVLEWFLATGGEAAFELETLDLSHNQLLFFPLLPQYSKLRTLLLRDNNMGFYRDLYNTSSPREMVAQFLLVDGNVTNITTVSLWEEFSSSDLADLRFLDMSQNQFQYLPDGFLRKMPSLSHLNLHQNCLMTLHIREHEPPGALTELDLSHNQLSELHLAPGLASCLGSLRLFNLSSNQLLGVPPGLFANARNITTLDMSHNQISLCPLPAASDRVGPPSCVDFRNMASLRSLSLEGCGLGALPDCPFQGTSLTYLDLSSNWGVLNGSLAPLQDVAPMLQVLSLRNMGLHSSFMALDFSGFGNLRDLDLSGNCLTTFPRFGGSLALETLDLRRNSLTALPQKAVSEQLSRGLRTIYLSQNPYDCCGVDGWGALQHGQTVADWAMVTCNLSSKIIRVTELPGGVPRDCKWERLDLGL
T2 sequence (P01137 30-390 limits assumed, chain 2 of 2): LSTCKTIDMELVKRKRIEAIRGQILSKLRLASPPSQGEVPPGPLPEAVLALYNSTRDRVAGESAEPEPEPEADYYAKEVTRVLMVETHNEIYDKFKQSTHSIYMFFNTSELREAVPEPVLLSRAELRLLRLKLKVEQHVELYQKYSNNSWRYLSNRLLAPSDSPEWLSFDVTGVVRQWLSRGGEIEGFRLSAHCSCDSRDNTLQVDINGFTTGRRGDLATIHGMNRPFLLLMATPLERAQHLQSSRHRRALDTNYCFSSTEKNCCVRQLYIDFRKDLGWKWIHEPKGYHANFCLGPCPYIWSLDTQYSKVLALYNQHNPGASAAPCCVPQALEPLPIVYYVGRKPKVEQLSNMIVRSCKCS
T3 sequence (Q9NS15 44-1303 limits assumed, chain 1 of 2): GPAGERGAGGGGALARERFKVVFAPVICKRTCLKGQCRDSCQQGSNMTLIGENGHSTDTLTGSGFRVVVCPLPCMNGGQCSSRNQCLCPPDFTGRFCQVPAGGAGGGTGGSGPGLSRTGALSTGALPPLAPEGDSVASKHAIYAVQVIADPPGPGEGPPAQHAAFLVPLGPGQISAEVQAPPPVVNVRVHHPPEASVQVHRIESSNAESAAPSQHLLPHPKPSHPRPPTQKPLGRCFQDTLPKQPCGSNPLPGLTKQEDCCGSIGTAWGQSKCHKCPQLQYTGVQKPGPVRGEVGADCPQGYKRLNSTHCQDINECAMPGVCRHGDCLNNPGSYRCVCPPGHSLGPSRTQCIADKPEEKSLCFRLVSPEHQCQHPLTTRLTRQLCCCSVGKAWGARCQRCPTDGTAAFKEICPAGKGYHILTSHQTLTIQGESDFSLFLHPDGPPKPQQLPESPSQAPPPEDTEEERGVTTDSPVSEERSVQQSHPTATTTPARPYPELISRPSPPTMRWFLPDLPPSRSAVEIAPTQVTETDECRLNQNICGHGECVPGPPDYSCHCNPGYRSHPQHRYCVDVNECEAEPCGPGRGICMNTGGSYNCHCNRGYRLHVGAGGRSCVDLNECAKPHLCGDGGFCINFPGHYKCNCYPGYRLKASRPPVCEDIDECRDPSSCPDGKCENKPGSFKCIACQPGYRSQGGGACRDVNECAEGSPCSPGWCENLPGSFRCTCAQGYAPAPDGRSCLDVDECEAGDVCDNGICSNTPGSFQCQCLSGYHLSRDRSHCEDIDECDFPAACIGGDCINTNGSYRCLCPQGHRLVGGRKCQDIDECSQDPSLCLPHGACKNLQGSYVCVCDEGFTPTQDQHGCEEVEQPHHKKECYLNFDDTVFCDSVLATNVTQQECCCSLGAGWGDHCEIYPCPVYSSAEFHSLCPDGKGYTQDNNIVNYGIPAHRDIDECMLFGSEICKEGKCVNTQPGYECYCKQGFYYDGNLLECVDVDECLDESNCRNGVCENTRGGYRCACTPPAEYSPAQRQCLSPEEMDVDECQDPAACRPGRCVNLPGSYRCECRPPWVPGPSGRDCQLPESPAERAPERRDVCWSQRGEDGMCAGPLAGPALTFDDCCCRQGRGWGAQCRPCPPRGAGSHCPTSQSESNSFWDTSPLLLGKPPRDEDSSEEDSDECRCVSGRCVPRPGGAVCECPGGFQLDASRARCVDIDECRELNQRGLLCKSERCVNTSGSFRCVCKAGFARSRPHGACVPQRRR
T3 sequence (P01137 30-390 limits assumed, chain 2 of 2): as the sequence (P01137 30-390 limits assumed, chain 2 of 2) above
T1 sequence (Q14392 18-627 limits assumed, chain 1 of 2): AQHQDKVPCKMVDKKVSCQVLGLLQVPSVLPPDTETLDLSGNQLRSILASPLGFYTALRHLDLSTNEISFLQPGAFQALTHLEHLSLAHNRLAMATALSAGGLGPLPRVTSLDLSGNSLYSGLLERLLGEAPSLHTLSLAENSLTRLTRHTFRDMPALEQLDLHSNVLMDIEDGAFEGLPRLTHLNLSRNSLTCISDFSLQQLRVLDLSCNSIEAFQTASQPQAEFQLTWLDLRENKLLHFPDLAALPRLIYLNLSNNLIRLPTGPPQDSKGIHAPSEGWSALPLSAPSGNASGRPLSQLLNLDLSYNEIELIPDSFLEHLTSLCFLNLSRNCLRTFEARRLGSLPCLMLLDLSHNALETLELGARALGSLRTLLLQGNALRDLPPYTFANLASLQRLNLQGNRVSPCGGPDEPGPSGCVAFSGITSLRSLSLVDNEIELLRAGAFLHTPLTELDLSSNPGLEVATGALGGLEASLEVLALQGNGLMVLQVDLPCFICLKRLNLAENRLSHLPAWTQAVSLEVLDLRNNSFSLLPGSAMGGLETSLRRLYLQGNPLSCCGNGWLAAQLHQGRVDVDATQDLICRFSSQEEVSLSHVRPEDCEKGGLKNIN
T1 sequence (P01137 30-390 limits assumed, chain 2 of 2): as the sequence (P01137 30-390 limits assumed, chain 2 of 2) above
T4 sequence (Q14766 347-1721 limits assumed, chain 1 of 2): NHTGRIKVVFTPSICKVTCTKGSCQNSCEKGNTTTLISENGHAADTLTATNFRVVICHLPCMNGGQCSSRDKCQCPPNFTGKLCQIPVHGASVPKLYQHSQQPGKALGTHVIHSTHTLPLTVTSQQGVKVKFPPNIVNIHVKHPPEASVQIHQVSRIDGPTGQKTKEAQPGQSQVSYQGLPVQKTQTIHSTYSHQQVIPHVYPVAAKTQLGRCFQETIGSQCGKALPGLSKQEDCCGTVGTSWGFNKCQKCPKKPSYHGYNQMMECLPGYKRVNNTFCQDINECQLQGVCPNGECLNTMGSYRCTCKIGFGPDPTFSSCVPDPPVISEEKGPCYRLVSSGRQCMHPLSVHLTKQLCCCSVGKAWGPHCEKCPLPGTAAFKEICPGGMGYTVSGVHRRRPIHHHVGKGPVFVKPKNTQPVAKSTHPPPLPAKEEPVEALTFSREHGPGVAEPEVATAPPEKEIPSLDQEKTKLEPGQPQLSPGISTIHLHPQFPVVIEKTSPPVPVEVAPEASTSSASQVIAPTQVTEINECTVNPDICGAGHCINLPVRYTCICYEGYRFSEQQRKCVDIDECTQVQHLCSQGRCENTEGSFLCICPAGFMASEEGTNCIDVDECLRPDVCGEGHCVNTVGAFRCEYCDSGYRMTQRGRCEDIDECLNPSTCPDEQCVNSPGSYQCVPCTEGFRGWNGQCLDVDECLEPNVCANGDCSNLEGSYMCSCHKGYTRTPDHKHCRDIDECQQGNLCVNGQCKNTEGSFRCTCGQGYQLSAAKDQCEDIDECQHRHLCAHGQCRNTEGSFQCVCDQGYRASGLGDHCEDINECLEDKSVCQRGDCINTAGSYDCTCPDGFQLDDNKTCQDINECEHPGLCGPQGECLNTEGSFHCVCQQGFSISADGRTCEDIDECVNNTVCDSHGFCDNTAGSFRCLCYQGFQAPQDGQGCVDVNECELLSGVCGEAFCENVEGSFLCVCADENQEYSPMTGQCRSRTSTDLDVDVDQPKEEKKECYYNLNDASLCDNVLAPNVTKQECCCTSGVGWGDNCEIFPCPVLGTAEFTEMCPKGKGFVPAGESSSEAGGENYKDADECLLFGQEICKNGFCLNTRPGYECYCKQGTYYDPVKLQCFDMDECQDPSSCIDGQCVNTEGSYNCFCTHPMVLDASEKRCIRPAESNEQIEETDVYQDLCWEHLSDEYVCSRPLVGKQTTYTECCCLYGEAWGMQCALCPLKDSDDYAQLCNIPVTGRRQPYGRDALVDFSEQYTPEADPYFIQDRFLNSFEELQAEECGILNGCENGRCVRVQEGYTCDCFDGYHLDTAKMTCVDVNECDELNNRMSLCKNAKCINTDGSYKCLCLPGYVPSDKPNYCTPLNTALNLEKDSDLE
T4 sequence (P01137 30-390 limits assumed, chain 2 of 2): as the sequence (P01137 30-390 limits assumed, chain 2 of 2) above
endogenous LTBP-proTGFβ1 of human LN229 cells, sequence (P01137 30-390): as the sequence (P01137 30-390 limits assumed, chain 2 of 2) above

Binder | mAb IC50 [1] | Kd [2] | Kd [3] | Kd [4] | Kd [5] | IC50, in vitro potency assay [6] | IC50, in vitro potency assay [7] | IC50, in vitro potency assay [8] | IC50, in vitro potency assay [9] | Kd [10] | Kd [11] | Kd [12] | Kd [13] | IC50, reporter cell assay [14] | IC50, reporter cell assay [15] | IC50, reporter cell assay [16] | IC50, reporter cell assay [17]
B1 | 0.95 nM |  |  |  |  |  |  |  |  |  |  |  |  |  |  |  | 
B2 |  | 17.3 nM | 8.52 nM | 0.459 nM | 0.47 nM | 0.981 nM | 0.858 nM | 10.4 nM | 24.3 nM | 28 nM | 35 nM | 16.2 nM | 13 nM |  |  |  | 
B3 |  | 0.833 nM | 0.455 nM | 0.268 nM | 0.225 nM |  |  |  |  |  |  |  |  | 0.4 nM | 0.6 nM | 0.8 nM | 1.6 nM
B4 |  |  |  |  |  |  |  |  |  |  |  |  |  | 0.1 nM | 0.6 nM | 1 nM | 1.3 nM
B5 |  | 0.833 nM | 0.535 nM | 0.261 nM | 0.332 nM |  |  |  |  | 0.022 nM | 0.14 nM | 0.026 nM | 0.031 nM |  |  |  | 
B6 |  | 0.424 nM | 0.299 nM | 0.238 nM | 0.178 nM |  |  |  |  |  |  |  |  |  |  |  | 
B7 |  | 0.496 nM | 0.698 nM | 0.215 nM | 0.269 nM |  |  |  |  | 0.015 nM | 0.087 nM | 0.026 nM | 0.037 nM |  |  |  | 
B8 |  |  |  |  |  |  |  |  |  | 2.5 nM | 2.1 nM | 5.5 nM | 4.6 nM | 0.8 nM | 3.5 nM | 5.6 nM | 5.2 nM
B9 |  | 1.34 nM | 0.455 nM | 0.468 nM | 0.417 nM |  |  |  |  |  |  |  |  | 0.3 nM | 0.6 nM | 0.9 nM | 0.8 nM
B10 |  | 0.581 nM | 0.41 nM | 0.181 nM | 0.236 nM |  |  |  |  | 0.019 nM | 0.096 nM | 0.014 nM | 0.019 nM |  |  |  | 
B11 |  | 0.797 nM | 0.409 nM | 0.316 nM | 0.34 nM |  |  |  |  |  |  |  |  |  |  |  | 
B12 |  | 0.625 nM | 0.36 nM | 0.173 nM | 0.221 nM |  |  |  |  | 0.014 nM | 0.13 nM | 0.023 nM | 0.028 nM | 0.3 nM | 0.3 nM | 0.7 nM | 0.7 nM
B13 |  | 0.488 nM | 0.409 nM | 0.152 nM | 0.217 nM |  |  |  |  |  |  |  |  | 0.4 nM | 0.7 nM | 0.51 nM | 6.1 nM
B14 |  | 0.307 nM | 0.302 nM | 0.121 nM | 0.189 nM |  |  |  |  | 0.0055 nM | 0.043 nM | 0.011 nM | 0.012 nM | 0.3 nM | 0.5 nM | 0.8 nM | 0.5 nM
B15 |  | 0.665 nM | 0.41 nM | 0.198 nM | 0.246 nM |  |  |  |  | 0.019 nM | 0.18 nM | 0.021 nM | 0.024 nM |  |  |  | 
B16 |  | 0.974 nM | 0.415 nM | 0.329 nM | 0.318 nM |  |  |  |  | 0.027 nM | 0.2 nM | 0.033 nM | 0.05 nM |  |  |  | 
B17 |  | 0.265 nM | 0.339 nM | 0.111 nM | 0.179 nM |  |  |  |  | 0.0078 nM | 0.046 nM | 0.007 nM | 0.011 nM | 0.2 nM | 0.7 nM | 1.1 nM | 1.6 nM
